# Test results taken from the RNAGym collection of RNA variant scans (doi:10.7554/elife.80360).
# B1: HDV Ribozyme (parent)
# chain: GGCCGGCAUGGUCCCAGCCUCCUCGCUGGCGCCGGCUGGGCAACAUUCCGAGGGGACCGUCCCCUCGGUAAUGGCGAAUGGGACCCA
# B2: CPEB3 Ribozyme (parent)
# chain: GGGGGCCACAGCAGAAGCGUUCACGUCGCGGCCCCUGUCAGAUUCUGGUGAAUCUGCGAAUUCUGCUGU
# Variants of: B1
# Assay: self-cleavage, relative activity (ratio to wild type); higher = more cleavage; co-transcriptional
row,Variant,self-cleavage
1,C26G G40U,0.9
2,C24A C61G,0.678
3,U9G C24U,0.767
4,C22G G68U,0.0583
5,C3A U65G,0.718
6,G10U A16U,0.846
7,C48U A71U,0.585
8,A42U G80C,0.166
9,A56G G59A,0.849
10,C61U C84U,0.636
11,G67U G68U,0.76
12,A51G G80U,0.229
13,G17U C86A,0.369
14,G2U C32U,0.0437
15,U12A C33A,0.0604
16,C26A C66G,1.15
17,A16G A51U,0.906
18,G55C C84U,0.817
19,G2U G76C,0.0279
20,G67A G73A,0.492
21,C19U U60A,0.192
22,G25C A70C,0.0639
23,C4A G76C,0.253
24,G52U A78C,0.292
25,G39A U65C,0.463

row,Variant,self-cleavage
1,C30G U60C,0.147
2,G6C U12G,0
3,G10A U69G,0.554
4,A8C C64A,0.639
5,G6U C32A,1.08
6,C21G U23C,0.0615
7,U46A A87U,0.76
8,U79G A87C,0.656
9,G17A A83U,0.565
10,C7U C33A,0.0831
11,C22A C26G,0.119
12,G40C G52U,0.246
13,U9C G59U,1.17
14,A8G C49U,0.692
15,G10A G38C,0.0692
16,A42C A87C,0.367
17,G50A G53A,0.803
18,C13A C41U,0.149
19,G50U C85G,0.872
20,C13G C58G,0.119
21,A51U C64G,0.578
22,A42C G81U,0.16
23,C15A A77U,0.302
24,A51C G67A,0.77
25,C18A G53A,0.0652

row,Variant,self-cleavage
1,C15G U72C,0.119
2,G34C U69C,0.249
3,C84A C85G,0.519
4,C30U C48G,0.597
5,C36A G52C,0.138
6,U9A C26A,0.76
7,C48A G81U,0.338
8,C15A C75G,0.142
9,C61A U79A,0.642
10,C33G C63A,0.0475
11,C14U G73A,0.831
12,G11A U20G,0.0326
13,G29A A43U,0.0252
14,C66U G82A,0.649
15,G34C U72G,0.222
16,G55A G67C,0.942
17,U23G A71G,0.831
18,C13U G39A,0.332
19,C15U G80U,0.526
20,C30G G59A,0.0692
21,G52A C66G,0.841
22,C3U C18A,0.0782
23,U9A C66A,0.95
24,G2A G73C,0.0608
25,G38A G50A,0.0886

row,Variant,self-cleavage
1,G35U A71G,0.308
2,C33G C75U,0.151
3,G31U U37A,0.172
4,A16G G38C,0.142
5,G39C C66G,0.185
6,C14G C15A,0.312
7,G5C A42C,0.115
8,U47G U79A,0.95
9,G2A G31U,0.0205
10,C57G C86U,0.815
11,C7G C32U,0.104
12,C44G C75U,0.0627
13,A43C G81U,0
14,A83G C84G,0.95
15,C48U G74U,0.554
16,G5C C19U,0.0536
17,G39C A43U,0
18,G52U C61U,0.936
19,A56G C64U,0.563
20,G29C A45C,0.111
21,C57U A77C,0.415
22,G38C G67A,0.194
23,G2C U27C,0.0496
24,C36U C61U,0.726
25,A83C C85A,0.534

row,Variant,self-cleavage
1,U9A C58U,0.77
2,C15G G82C,0.111
3,G10C C30G,0.212
4,G5U G40U,0.155
5,G10C G68A,0.706
6,G2C U20A,0.0361
7,U37A U46C,0.0852
8,G2C G38C,0.0475
9,C30U A77C,0.181
10,C15U G55U,0.729
11,C26G A77G,0.929
12,C7A A8C,0.65
13,C15G C48U,0.237
14,C64U C85A,1.25
15,C32U A87G,0.787
16,C19A G52A,0.0863
17,A45U C49G,0.458
18,C41A A45C,0.504
19,U23C C36A,0.172
20,U60C C75A,0.237
21,U20C A56U,0.266
22,G40C U60C,0.332
23,G10A U47A,0.665
24,A16G A78G,0.465
25,C57U C85A,0.698

row,Variant,self-cleavage
1,C3G C14G,0.268
2,C15U A56C,1.02
3,U37C G73A,0.493
4,C15U A16U,1.26
5,C30A A70G,0.332
6,U12G G40A,0.72
7,U60A U79A,0.923
8,U20C U27A,0.196
9,U12G C44A,0.604
10,C15A A87G,0.776
11,G54A G73A,0.394
12,C3G C49A,0.736
13,G29U A51U,0.169
14,A16C C62A,0.917
15,G1U A56U,0.394
16,A51U U65C,1.04
17,G29A A42C,0.104
18,G11A G39U,0.0989
19,A16G U65C,1.26
20,C57U A87U,1.01
21,C19U U60G,0.182
22,G25A G39U,0.0244
23,U20G C64G,0.196
24,A77G A78C,0.172
25,G31C A45C,0.104

row,Variant,self-cleavage
1,U12G C14A,0.356
2,G28C A83C,0
3,U20G C61G,0.0536
4,C3A A43U,0.191
5,U9G G53C,0.939
6,A16C C85U,0.795
7,C24U G52A,0.554
8,U12G G50U,0.87
9,C18U G31C,0.0326
10,C58A A70U,1
11,C4A C14G,0.175
12,U47C C75G,0
13,G25U G80A,0.117
14,C15U C66G,0.831
15,C13G G35A,0.0449
16,C30A C61A,0.428
17,G52A A77G,0.89
18,G1A G35U,0.158
19,C41A C75U,0.145
20,C3G U37A,0
21,C19U C61G,0.176
22,U20C G31A,0.0415
23,U20A G28C,0.0573
24,C57G G76C,0.895
25,G40U C86G,0.562

row,Variant,self-cleavage
1,G28C A70U,0.101
2,C24G C66G,0.13
3,C24G G82A,0
4,G38U C86U,0.241
5,U60A U65G,1.09
6,C48G G54U,0.726
7,G50A G53U,0.727
8,G1A G31A,0.131
9,A43U C61G,0.528
10,G53A C63A,0.819
11,U9C U27A,0.935
12,C22A G80U,0.0408
13,C48G U79G,0.795
14,G17U A83U,0.34
15,G38U A83U,0.0959
16,C63A G81U,0.244
17,U12A C66U,0.317
18,G52C G76U,1.03
19,C33G G76A,0.185
20,G29U A45C,0.113
21,C18U G76A,0.728
22,G17C A71C,0.246
23,U12C G59U,0.135
24,C18A C75U,0.0665
25,G10C G38C,0.0941

row,Variant,self-cleavage
1,U12A G74A,0.128
2,G35U C49A,0.499
3,G25C A83C,0.0489
4,G5A C61G,0.166
5,G29C U72A,0
6,G29U G40C,0.0583
7,A8U G55U,0.635
8,G1A C13A,0.0639
9,A45G U79C,0.674
10,U37C C85A,1.16
11,G6C G73C,0
12,C19U U65G,0.182
13,G54U A71U,0.987
14,C57A A70G,0.852
15,U23A C58G,1.34
16,G10A C32U,0.652
17,C3U G40A,0.857
18,C41A C58U,0.778
19,C3G C48U,0.736
20,C33A C86A,0.277
21,G35A C61G,0.465
22,U9A G82U,0.375
23,C19U A71C,0.0898
24,G38U C64A,0.257
25,G29A C66U,0.114

row,Variant,self-cleavage
1,G6U G11C,0
2,G10U U72G,0.407
3,G52A G55C,0.923
4,G28U U69A,0.162
5,G25C C61U,0.0354
6,C13U C57G,0.587
7,C58U G74A,0.462
8,G38U U47A,0.109
9,C18U C48A,0.644
10,G29C C61G,0.032
11,G10U A43U,0.284
12,U12A C14U,0.332
13,G6U C36U,0.227
14,G6A G25U,0.089
15,C14G A83C,0
16,U9G G80U,0.289
17,C13A G73C,0.0767
18,C4U C62U,0.656
19,C64U G74A,0.535
20,C32U C61U,0.817
21,G17A C30G,0.631
22,G11C U23A,0.465
23,C62A U79C,0.339
24,U60C A70C,1.04
25,C49U C57G,1.19

row,Variant,self-cleavage
1,U23A A56C,0.929
2,C13U A71G,0.429
3,C22U G35U,0.0511
4,U12A C48U,0.277
5,C7G C86G,0.378
6,U12G A51C,0.415
7,A45U A56G,0.806
8,A16C G38U,0.287
9,C32U G74A,0.459
10,G1U G28C,0.185
11,G34U C48U,0.112
12,G52U G54C,0.684
13,C4U C75G,0.122
14,C3U U46G,0.446
15,G55C G68U,1.08
16,C19U G39A,0.0779
17,C7G U20G,0.145
18,C41U G81C,0.168
19,C44A C64A,0.665
20,G54C U65G,0.8

# Variants of: B2
# Assay: as above
row,Variant,self-cleavage
1,G1A A8C,0.102
2,G1A A8G,0.0246
3,G1A A10G,0.115
4,G1A A10U,0.0492
5,G1A A16C,0.028
6,G1A A16U,0.0347
7,G1A A23C,0.0884
8,G1A A23G,0.139
9,G1A A40G,0.0657
10,G1A A42C,0.106
11,G1A A42U,0.105
12,G1A A51C,0.114
13,G1A A51G,0.0779
14,G1A A60G,0.0623
15,G1A A60U,0.107
16,G1A C7A,0.155
17,G1A C7U,0.0863
18,G1A C12U,0.0887
19,G1A C22A,0.0619
20,G1A C22G,0.0704
21,G1A C27G,0.0668
22,G1A C29A,0.061

row,Variant,self-cleavage
1,G1A C33A,0.0757
2,G1A C35G,0.053
3,G1A C39A,0.0683
4,G1A C39G,0.0386
5,G1A C45A,0.0944
6,G1A C54U,0.0835
7,G1A C66A,0.0751
8,G1A C66U,0.0966
9,G1A G2A,0.302
10,G1A G2C,0.265
11,G1A G2U,0.332
12,G1A G3A,0.107
13,G1A G3U,0.0455
14,G1A G4U,0.0804
15,G1A G11C,0.0395
16,G1A G14U,0.0964
17,G1A G17C,0.0672
18,G1A G19A,0.0657
19,G1A G19C,0.0333
20,G1A G19U,0.0319
21,G1A G25A,0.0488
22,G1A G25U,0.076

row,Variant,self-cleavage
1,G1A G28A,0.0534
2,G1A G30U,0.0869
3,G1A G31U,0.0837
4,G1A G37A,0.0641
5,G1A G41A,0.0513
6,G1A G48C,0.142
7,G1A G50C,0.115
8,G1A G58U,0.0885
9,G1A U21C,0.0967
10,G1A U38A,0.0918
11,G1A U38G,0.0274
12,G1A U43A,0.0552
13,G1A U43C,0.0436
14,G1A U43G,0.0723
15,G1A U44G,0.0722
16,G1A U49C,0.0571
17,G1A U53A,0.0419
18,G1A U53C,0.0532
19,G1A U53G,0.0671
20,G1A U55G,0.0876
